Laboratory results as given in US20190016794A1 (Boehringer Ingelheim, published 2019).

Columns and labels:
human TNF-alpha [1] = target: T1, human TNF-alpha (human, UniProt P01375 77-233); assay: cell-based or functional assay
human TNF-alpha [2] = target: T1, human TNF-alpha; assay: cell-based or functional assay; remark: listed apart in the source
cynomolgus TNF-alpha = cynomolgus TNF-alpha (cynomolgus, UniProt P79337 77-233, limits assumed); assay: cell-based or functional assay
human TNF-alpha [3] = target: T1, human TNF-alpha; assay: cell-based or functional assay; remark: listed apart in the source
human TNF-alpha [4] = target: T1, human TNF-alpha; assay: cell-based or functional assay; remark: listed apart in the source
recombinant human IL23 [5] = target: T2, recombinant human IL23 (human, UniProt P29460 23-328); assay: cell-based or functional assay
T2 sequence 1: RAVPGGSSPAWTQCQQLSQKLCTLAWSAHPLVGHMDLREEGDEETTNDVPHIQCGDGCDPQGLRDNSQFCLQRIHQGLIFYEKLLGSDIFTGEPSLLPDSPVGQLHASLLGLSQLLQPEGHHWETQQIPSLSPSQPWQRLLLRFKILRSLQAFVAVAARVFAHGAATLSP
T2 sequence 2: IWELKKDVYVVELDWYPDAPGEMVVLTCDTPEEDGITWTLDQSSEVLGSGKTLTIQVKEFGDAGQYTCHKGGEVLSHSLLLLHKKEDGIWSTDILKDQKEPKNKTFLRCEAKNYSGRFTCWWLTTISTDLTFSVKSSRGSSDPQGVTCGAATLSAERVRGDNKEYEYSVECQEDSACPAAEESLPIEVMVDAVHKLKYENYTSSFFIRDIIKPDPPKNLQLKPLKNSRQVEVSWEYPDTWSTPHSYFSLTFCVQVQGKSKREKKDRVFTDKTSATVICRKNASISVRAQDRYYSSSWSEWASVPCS

recombinant human IL23 [6] = target: T2, recombinant human IL23; assay: cell-based or functional assay; remark: listed apart in the source
[7] = target: T3, recombinant cynomolgus IL23 (cynomolgus); assay: cell-based or functional assay
T3 chain 1: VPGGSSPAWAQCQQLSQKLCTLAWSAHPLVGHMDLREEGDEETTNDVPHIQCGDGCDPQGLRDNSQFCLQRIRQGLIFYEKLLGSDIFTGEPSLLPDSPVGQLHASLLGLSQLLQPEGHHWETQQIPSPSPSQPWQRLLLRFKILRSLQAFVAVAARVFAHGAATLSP
T3 chain 2: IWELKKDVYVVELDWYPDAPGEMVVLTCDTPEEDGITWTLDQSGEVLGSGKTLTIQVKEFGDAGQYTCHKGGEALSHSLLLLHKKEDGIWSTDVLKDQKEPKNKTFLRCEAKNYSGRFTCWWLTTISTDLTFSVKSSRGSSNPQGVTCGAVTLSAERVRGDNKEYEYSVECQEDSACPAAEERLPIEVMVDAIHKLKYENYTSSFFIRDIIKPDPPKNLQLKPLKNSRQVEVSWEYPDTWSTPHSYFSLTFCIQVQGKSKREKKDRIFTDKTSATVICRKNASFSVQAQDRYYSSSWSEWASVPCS

recombinant human IL23 [8] = target: T2, recombinant human IL23; assay: cell-based or functional assay; remark: listed apart in the source
recombinant human IL23 [9] = target: T2, recombinant human IL23; assay: cell-based or functional assay; remark: listed apart in the source
membrane bound TNF-alpha [10] = target: T4, membrane bound TNF-alpha; assay: flow cytometry, mTNF-transfected CHO cells (geomean)
T4 construct: whole, on cells; also called mTNF; membrane expressed TNF-alpha
T4 sequence (P01375 whole entry): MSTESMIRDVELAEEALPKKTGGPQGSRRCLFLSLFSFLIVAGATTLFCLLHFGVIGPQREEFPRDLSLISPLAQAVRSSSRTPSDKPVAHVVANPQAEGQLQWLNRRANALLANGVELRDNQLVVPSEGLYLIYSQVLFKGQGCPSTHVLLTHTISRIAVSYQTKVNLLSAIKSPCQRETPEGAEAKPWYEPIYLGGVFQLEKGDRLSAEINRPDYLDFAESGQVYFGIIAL
Experimental: (§1) All reagents were prepared in flow cytometry staining buffer (BioLegend). Membrane expressed TNF-alpha transfected cell lines (Jurkat and CHO) and parental cell lines were harvested from tissue culture vessels, washed, counted and resuspended to 1×10̂6 cells/ml in flow cytometry staining buffer. One hundred microliters of the cell suspension was added to 96 well microtiter plates and placed on ice. Titrations of test compounds were prepared and 50 uL was added to the cells. After sixty minute incubation on ice, the cell+test compounds were washed and 50 uL of a secondary antibody (Jackson ImmunoResearch) was added. The samples were incubated in the dark, at 4 C, for 60 minutes, followed by washes. After a final wash the cells were resuspended in 60 uL of fixative (BD Bioscience). Median fluorescence was determined for each sample in a flow cytometer and plotted versus the concentration of the test sample. EC₅₀ values were calculated using the 4 Parameter Logistic enabled by the Excel add-in XLfit (Activity Base software, ID Business Solutions, Ltd.).

membrane bound TNF-alpha [11] = target: T4, membrane bound TNF-alpha; assay: flow cytometry, mTNF-transfected Jurkat cells (geomean)
Experimental: as §1

recombinant human IL23 [12] = target: T2, recombinant human IL23; assay: cell-based or functional assay; remark: listed apart in the source
recombinant human IL23 [13] = target: T2, recombinant human IL23; assay: cell-based or functional assay; remark: listed apart in the source
human TNF-alpha [14] = target: T1, human TNF-alpha; assay: SPR (ProteOn XPR36), compound captured on goat anti-human IgG Fc, antigen injected
Experimental: (§2) SPR experiments were performed on a ProteOn XPR36 instrument (Bio Rad). A GLM chip was preconditioned with sequential injections of 60 sec of 0.5% SDS, 50 mM NaOH, and 100 mM HCl at a flow rate of 30 μl/min both vertical and horizontal directions. […] Goat-anti-human IgG (GAHA) Fc gamma (Invitrogen) at a concentration of 30 μg/ml in 10 mM, pH 5.0 sodium acetate buffer was immobilized to 8,000 resonance units on the activated GLM chip in 6 horizontal channels. The chip was finally deactivated with 1 M ethanolamine HCl in 6 horizontal channels. The prepared GAHA chip was rotated to vertical direction to capture test compounds, over 5 vertical channels and the last channel was used as a column reference. The captured chip was then rotated again to the horizontal direction for binding. […] The dissociation was allowed for 2 hour. […] The regenerated GAHA was ready for another binding cycle.

Linked human IL-23 = target: T5, Linked human IL-23 (human, UniProt P29460 23-328); assay: SPR (ProteOn XPR36), compound captured on goat anti-human IgG Fc, linked human IL-23 injected at 0.625-10 nM
T5 construct: Printed as 'Linked human IL-23 (Boehringer Ingelheim Pharmaceuticals, Inc)' in the SPR method
T5 sequence 1: T2 sequence 1
T5 sequence 2: T2 sequence 2
Experimental: as §2

T1 sequence (P01375 77-233 limits assumed): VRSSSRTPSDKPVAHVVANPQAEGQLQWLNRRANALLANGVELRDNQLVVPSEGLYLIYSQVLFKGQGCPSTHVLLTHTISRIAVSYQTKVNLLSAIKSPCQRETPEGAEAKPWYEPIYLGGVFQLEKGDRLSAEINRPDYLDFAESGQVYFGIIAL
Chain of cynomolgus TNF-alpha (P79337 77-233 limits assumed): as the sequence (P01375 77-233 limits assumed) above, with L37V, R44T, T72N, R138L counted along it

B1: Compound O (bispecific antibody)
chain 1: not shown
chain 2: EIVLTQSPATLSLSPGERATLSCRASQSVYSYLAWYQQKPGQAPRLLIYDASNRATGIPARFSGSGSGTDFTLTISSLEPEDFAVYYCQQRSNWPPFTFGPGTKVDIKGGGSGGGGQVQLVQSGAEVKKPGSSVKVSCKASGYTFTDQTIHWMRQAPGQGLEWIGYIYPRDDSPKYNENFKGKVTITADKSTSTAYMELSSLRSEDTAVYYCAIPDRSGYAWFIYWGQGTLVTVSSLGGGSGRTVAAPSVFIFPPSDEQLKSGTASVVCLLNNFYPREAKVQWKVDNALQSGNSQESVTEQDSKDSTYSLSSTLTLSKADYEKHKVYACEVTHQGLSSPVTKSFNRGEC
notes: GS linkers, isotype IgG1KO; counterpart of Compound E without YTE; also called Compound 0
- L929 TNF Cytotox IC50 (human TNF-alpha [1]): 0.0042 nM
- L929 TNF Cytotox IC90 (human TNF-alpha [1]): 0.016 nM
- HeLa IL8 Hi-Hu-TNF IC50 (human TNF-alpha [2]): 0.43 nM
- HeLa IL8 Hi-Hu-TNF IC90 (human TNF-alpha [2]): 0.76 nM
- HeLa IL8 Lo-Hu-TNF IC50 (human TNF-alpha [2]): 0.0099 nM
- HeLa IL8 Lo-Hu-TNF IC90 (human TNF-alpha [2]): 0.043 nM
- HeLa IL8 Cyno-TNF IC50 (cynomolgus TNF-alpha): 0.3 nM
- HeLa IL8 Cyno-TNF IC90 (cynomolgus TNF-alpha): 0.97 nM
- TNF-IL8 Whole Blood IC50 (human TNF-alpha [3]): 0.32 nM
- TNF-IL8 Whole Blood IC90 (human TNF-alpha [3]): 0.47 nM
- Dual Phospho Jurkat-pNf-Kb IC50 (human TNF-alpha [4]): 210 pM
- Dual Phospho Jurkat-pNf-Kb IC90 (human TNF-alpha [4]): 740 pM
- Dual Phospho DB-pSTAT3 IC50 (recombinant human IL23 [5]): 210 pM
- Dual Phospho DB-pSTAT3 IC90 (recombinant human IL23 [5]): 580 pM
- hIL23 pSTAT3 DB assay IC50 (recombinant human IL23 [6]): 300 pM
- hIL23 pSTAT3 DB assay IC90 (recombinant human IL23 [6]): 720 pM
- CynoIL23 MSA IC50 [7]: 0.12 nM
- CynoIL23 MSA IC90 [7]: 0.8 nM
- huIL23 MSA IC50 (recombinant human IL23 [8]): 0.21 nM
- huIL23 MSA IC90 (recombinant human IL23 [8]): 2.2 nM
- IL23A pSTAT3 (MG) IC50 (recombinant human IL23 [9]): 160 pM
- IL23A pSTAT3 (MG) IC90 (recombinant human IL23 [9]): 650 pM
- EC50 (membrane bound TNF-alpha [10]): 0.77 nM
- EC50 (membrane bound TNF-alpha [11]): 0.27 nM

B2: Compound E (bispecific antibody)
chain 1: DIQMTQSPSSLSASVGDRVTITCKASRDVAIAVAWYQQKPGKVPKLLIYWASTRHTGVPSRFSGSGSRTDFTLTISSLQPEDVADYFCHQYSSYPFTFGSGTKLEIKGGGSGGGGQVQLVESGGGVVQPGRSLRLSCAASGFIFSSYAMHWVRQAPGNGLEWVAFMSYDGSNKKYADSVKGRFTISRDNSKNTLYLQMNSLRAEDTAVYYCARDRGIAAGGNYYYYGMDVWGQGTTVTVSSLGGGSGASTKGPSVFPLAPSSKSTSGGTAALGCLVKDYFPEPVTVSWNSGALTSGVHTFPAVLQSSGLYSLSSVVTVPSSSLGTQTYICNVNHKPSNTKVDKRVEPKSCDKTHTCPPCPAPEAAGGPSVFLFPPKPKDTLYITREPEVTCVVVDVSHEDPEVKFNWYVDGVEVHNAKTKPREEQYNSTYRVVSVLTVLHQDWLNGKEYKCKVSNKALPAPIEKTISKAKGQPREPQVYTLPPSREEMTKNQVSLTCLVKGFYPSDIAVEWESNGQPENNYKTTPPVLDSDGSFFLYSKLTVDKSRWQQGNVFSCSVMHEALHNHYTQKSLSLSPGK
chain 2: B1 chain 2
notes: GS linkers, isotype IgG1KO-YTE
- L929 TNF Cytotox IC50 (human TNF-alpha [1]): 0.0041 nM
- L929 TNF Cytotox IC90 (human TNF-alpha [1]): 0.017 nM
- HeLa IL8 Hi-Hu-TNF IC50 (human TNF-alpha [2]): 0.32 nM
- HeLa IL8 Hi-Hu-TNF IC90 (human TNF-alpha [2]): 0.53 nM
- HeLa IL8 Lo-Hu-TNF IC50 (human TNF-alpha [2]): 0.0092 nM
- HeLa IL8 Lo-Hu-TNF IC90 (human TNF-alpha [2]): 0.035 nM
- TNF-IL8 Whole Blood IC50 (human TNF-alpha [3]): 0.34 nM
- TNF-IL8 Whole Blood IC90 (human TNF-alpha [3]): 0.61 nM
- Dual Phospho Jurkat-pNf-Kb IC50 (human TNF-alpha [4]): 260 pM
- Dual Phospho Jurkat-pNf-Kb IC90 (human TNF-alpha [4]): 340 pM
- Dual Phospho DB-pSTAT3 IC50 (recombinant human IL23 [5]): 230 pM
- Dual Phospho DB-pSTAT3 IC90 (recombinant human IL23 [5]): 770 pM
- hIL23 pSTAT3 DB assay IC50 (recombinant human IL23 [6]): 300 pM
- hIL23 pSTAT3 DB assay IC90 (recombinant human IL23 [6]): 700 pM
- CynoIL23 MSA IC50 [7]: 0.077 nM
- CynoIL23 MSA IC90 [7]: 1.2 nM
- huIL23 MSA IC50 (recombinant human IL23 [8]): 0.2 nM
- huIL23 MSA IC90 (recombinant human IL23 [8]): 1.7 nM
- IL23A pSTAT3 (MG) IC50 (recombinant human IL23 [9]): 140 pM
- IL23A pSTAT3 (MG) IC90 (recombinant human IL23 [9]): 830 pM
- IC50, IL-23-dependent STAT3 activation (DB-STAT3Luc10 luciferase) (recombinant human IL23 [12]): 0.212 nM
- IC90, IL-23-dependent STAT3 activation (DB-STAT3Luc10 luciferase) (recombinant human IL23 [12]): 0.965 nM
- First test IC50, IL-23-dependent STAT3 activation (luciferase) (recombinant human IL23 [13]): 0.17 nM
- GEOMEAN IC50, IL-23-dependent STAT3 activation (luciferase) (recombinant human IL23 [13]): 0.19 nM
- GEOMEAN IC90, IL-23-dependent STAT3 activation (luciferase) (recombinant human IL23 [13]): 0.859 nM
- EC50 (membrane bound TNF-alpha [10]): 0.45 nM
- EC50 (membrane bound TNF-alpha [11]): 0.2 nM
- Kd (human TNF-alpha [14]): 0.00411 nM
- Kd (Linked human IL-23): 0.007 nM
